According to publication PMC11406519:

What was measured:
[1] = target: GNNV-P R276A (Dragon grouper nervous necrosis virus); assay: AUC; sedimentation velocity, pH 5.0, no divalent ions; 0.25–0.4 mg/mL, 60,000 rpm, 20 °C, absorbance at 280 nm, c(s) model (SEDFIT); monomer to trimer
[2] = target: GNNV-P: Dragon grouper NNV capsid protein P-domain (aa 221–338) plus the flexible linker (aa 214–220), wild type (Dragon grouper nervous necrosis virus); assay: as above

| Substance | stoichiometry N [1] | stoichiometry N [2] |
| --- | --- | --- |
| GNNV-P R276A (domain or fragment) | 3 | – |
| GNNV-P: Dragon grouper NNV capsid protein P-domain (aa 221–338) plus the flexible linker (aa 214–220), wild type (domain or fragment) | – | 3 |
